For seven sequences, Kd results are on record in the Immune Epitope Database (IEDB).

One test deals with HLA-B*46:01. The experiment in a line: IEDB peptide-MHC binding, purified MHC/direct/fluorescence; filed as Kd, often an IC50 or EC50 that approximates it; ≥ and ≤ were set here for values at or beyond the usual limits of such assays.
In another test the target is HLA-B*15:02. The test is described as above.
The target of the next test is HLA-A*30:02. The experiment in a line: IEDB peptide-MHC binding, purified MHC/competitive/radioactivity; filed as Kd, often an IC50 or EC50 that approximates it; ≥ and ≤ were set here for values at or beyond the usual limits of such assays. The settings on record: source organism: Dengue virus 3 Martinique/1243/1999.
The target in test [1] is HLA-A*02:01. In words: IEDB peptide-MHC binding, purified MHC/direct/fluorescence; filed as Kd, often an IC50 or EC50 that approximates it; ≥ and ≤ were set here for values at or beyond the usual limits of such assays.
Another test has as its target HLA-A*01:01. The description is as above.
The next test addresses HLA-A*69:01. Described as above.
A further test addresses HLA-A*02:11. The experiment in a line: IEDB peptide-MHC binding, purified MHC/competitive/fluorescence; filed as Kd, often an IC50 or EC50 that approximates it; ≥ and ≤ were set here for values at or beyond the usual limits of such assays.
A further test addresses HLA-A*02:06. The test is described as above.
Another test has as its target HLA-C*15:02. In words: IEDB peptide-MHC binding, purified MHC/direct/fluorescence; filed as Kd, often an IC50 or EC50 that approximates it; ≥ and ≤ were set here for values at or beyond the usual limits of such assays. The settings on record: source organism: Encephalitozoon cuniculi GB-M1.
In another test the target is HLA-A*24:02. The experiment in a line: IEDB peptide-MHC binding, purified MHC/competitive/fluorescence; filed as Kd, often an IC50 or EC50 that approximates it; ≥ and ≤ were set here for values at or beyond the usual limits of such assays.
In a further test the target is HLA-B*08:01. The experiment in a line: IEDB peptide-MHC binding, purified MHC/direct/fluorescence; filed as Kd, often an IC50 or EC50 that approximates it; ≥ and ≤ were set here for values at or beyond the usual limits of such assays.
Test [2] addresses HLA-B*27:05. The test is described as above.
For the next test, the target named is HLA-A*68:02. The test is described as above. The settings on record: source organism: Marburg virus - Musoke, Kenya, 1980.
The next test has as its target HLA-B*15:17. Described as above. The settings on record: source organism: Marburg virus - Musoke, Kenya, 1980.
A further test concerns the target HLA-B*48:01. The test is described as above. To be noted: source organism: Marburg virus - Musoke, Kenya, 1980.
The next test deals with HLA-B*07:02. Described as above.
Another test has as its target HLA-B*58:01. The description is as above.
In test [3] the target is HLA-B*15:01. The description is as above.
The target of the next test is HLA-B*57:01. The description is as above. To be noted: source organism: Marburg virus - Musoke, Kenya, 1980.
Test [4] has as its target HLA-A*26:01. In words: IEDB peptide-MHC binding, purified MHC/competitive/fluorescence; filed as Kd, often an IC50 or EC50 that approximates it; ≥ and ≤ were set here for values at or beyond the usual limits of such assays. The settings on record: source organism: Orthomarburgvirus marburgense.
The target in test [5] is HLA-A*02:01. Described as above.
Test [6] concerns the target HLA-A*31:01. The test is described as above. The settings on record: source organism: Orthomarburgvirus marburgense.
The target of another test is HLA-A*30:01. Described as above. To be noted: source organism: Orthomarburgvirus marburgense.
Test [7] deals with HLA-A*11:01. The test is described as above. The settings on record: source organism: Orthomarburgvirus marburgense.
The target of another test is HLA-A*02:03. The test is described as above.
Test [8] deals with HLA-B*40:01. The description is as above. The settings on record: source organism: Escherichia coli B7A.
Test [9] addresses HLA-A*26:01. In words: IEDB peptide-MHC binding, purified MHC/direct/fluorescence; filed as Kd, often an IC50 or EC50 that approximates it; ≥ and ≤ were set here for values at or beyond the usual limits of such assays. The settings on record: source organism: Corynebacterium glutamicum.
Test [10] concerns the target HLA-A*31:01. Described as above. To be noted: source organism: Corynebacterium glutamicum.
Test [11] addresses HLA-B*40:01. The description is as above. To be noted: source organism: Corynebacterium glutamicum.
For another test, the target named is HLA-A*03:01. The test is described as above. The settings on record: source organism: Corynebacterium glutamicum.
Test [12] addresses HLA-A*11:01. Described as above. To be noted: source organism: Corynebacterium glutamicum.
The target in the next test is HLA-A*02:50. The experiment in a line: IEDB peptide-MHC binding, purified MHC/competitive/fluorescence; filed as Kd, often an IC50 or EC50 that approximates it; ≥ and ≤ were set here for values at or beyond the usual limits of such assays. To be noted: source organism: Corynebacterium glutamicum ATCC 13032.
A further test has as its target HLA-A*02:12. The description is as above. The settings on record: source organism: Corynebacterium glutamicum ATCC 13032.
For a further test, the target named is HLA-C*07:02. In words: IEDB peptide-MHC binding, purified MHC/direct/fluorescence; filed as Kd, often an IC50 or EC50 that approximates it; ≥ and ≤ were set here for values at or beyond the usual limits of such assays. The settings on record: source organism: Salmonella enterica subsp. enterica serovar Typhi str. CT18.
The next test has as its target HLA-B*15:42. In words: IEDB peptide-MHC binding, purified MHC/competitive/fluorescence; filed as Kd, often an IC50 or EC50 that approximates it; ≥ and ≤ were set here for values at or beyond the usual limits of such assays. To be noted: source organism: Salmonella enterica subsp. enterica serovar Typhi.
Another test has as its target HLA-B*27:20. The test is described as above. The settings on record: source organism: Salmonella enterica subsp. enterica serovar Typhi.
The target in test [13] is HLA-B*27:05. Described as above. To be noted: source organism: Salmonella enterica subsp. enterica serovar Typhi.
Another test has as its target HLA-B*39:01. The test is described as above. The settings on record: source organism: Salmonella enterica subsp. enterica serovar Typhi.
The next test addresses HLA-B*40:13. The test is described as above. The settings on record: source organism: Salmonella enterica subsp. enterica serovar Typhi.
The target of test [14] is HLA-B*15:01. The test is described as above. The settings on record: source organism: Salmonella enterica subsp. enterica serovar Typhi.
A further test addresses HLA-B*45:06. The test is described as above. The settings on record: source organism: Salmonella enterica subsp. enterica serovar Typhi.
The target of another test is HLA-B*83:01. The description is as above. To be noted: source organism: Salmonella enterica subsp. enterica serovar Typhi.
Another test has as its target HLA-A*32:07. Described as above. To be noted: source organism: Salmonella enterica subsp. enterica serovar Typhi.
Setting [15] is: source organism: dengue virus type 3.
Where [16] appears, read: source organism: Haemophilus influenzae.
The mark [17] stands for this setting: source organism: Ravn virus - Ravn, Kenya, 1987.
[18] abbreviates: source organism: Marburg virus - Musoke, Kenya, 1980.
[19] abbreviates: source organism: Orthomarburgvirus marburgense.
Setting [20] is: source organism: Corynebacterium glutamicum.
Setting [21] is: source organism: Corynebacterium glutamicum ATCC 13032.
Where [22] appears, read: source organism: Salmonella enterica subsp. enterica serovar Typhi.

A value given as a limit tells only on which side of the number the result lay.

Consider KQIANELNY, for which the results for the Kd with HLA-B*46:01 (setting [15]), in the test with HLA-B*15:02 (setting [15]) and with HLA-A*30:02 were at least 20000 nM, at least 20000 nM and at least 76900 nM, respectively.
With YINMAWNLV, the Kd in the test with HLA-A*02:01 [1] (setting [16]) was 135 nM; in the test with HLA-A*01:01 (setting [16]) it was 625 nM; in the test with HLA-A*69:01 (setting [16]), 639 nM; in the test with HLA-A*02:11 (setting [16]), at most 0.1 nM; in the test with HLA-A*02:06 (setting [16]), at most 0.1 nM.
As for TTLSIYFLL, the Kd came out at 3660 nM in the test with HLA-C*15:02 and 86.6 nM with HLA-A*24:02 (source organism: Encephalitozoon cuniculi GB-M1).
Take ALFHKVQSY: the dissociation constant (Kd) is at least 20000 nM with HLA-B*08:01 (setting [17]); at least 20000 nM in the test with HLA-B*27:05 [2] (setting [18]); at least 20000 nM in the test with HLA-A*68:02; at least 20000 nM with HLA-A*01:01 (setting [18]); 4.6 nM with HLA-B*15:17; at least 20000 nM with HLA-B*46:01 (setting [18]). For the same sequence, the Kd with HLA-B*48:01 is at least 20000 nM; in the test with HLA-B*07:02 (setting [18]), at least 20000 nM; in the test with HLA-B*58:01 (setting [18]), at least 20000 nM; with HLA-B*15:01 [3] (setting [18]), 20.5 nM; with HLA-A*69:01 (setting [18]), at least 20000 nM; with HLA-B*57:01 it was at least 20000 nM. The Kd with HLA-B*15:02 (setting [17]) stood at 38 nM; in the test with HLA-A*26:01 [4], 1140 nM; in the test with HLA-A*02:01 [5] (setting [19]) it was 1310 nM; with HLA-A*31:01 [6] it was 3920 nM; with HLA-A*30:01 it was 438 nM; in the test with HLA-A*11:01 [7], 1940 nM. The same sequence showed a Kd in the test with HLA-A*02:03 (setting [19]) of 1560 nM.
In turn, GEHVPEIIL registered a Kd with HLA-B*40:01 [8] of 1.7 nM.
For the sequence FLPGQYMNI, the Kd with HLA-B*08:01 (setting [20]) is at least 20000 nM; with HLA-B*27:05 [2] (setting [20]), at least 20000 nM; with HLA-A*26:01 [9], at least 20000 nM; with HLA-A*02:01 [1] (setting [20]) it was 72.8 nM; in the test with HLA-A*31:01 [10], at least 20000 nM; in the test with HLA-B*40:01 [11] it was at least 20000 nM. Further, the Kd in the test with HLA-A*01:01 (setting [20]), in the test with HLA-A*03:01, in the test with HLA-A*11:01 [12], with HLA-B*07:02 (setting [20]), with HLA-B*58:01 (setting [20]) and with HLA-B*15:01 [3] (setting [20]) was at least 20000 nM each time. The Kd in the test with HLA-A*69:01 (setting [20]) is 404 nM; with HLA-A*02:50, at most 0.1 nM; in the test with HLA-A*02:11 (setting [21]) it was at most 0.1 nM; with HLA-A*02:12, at most 0.1 nM; with HLA-A*02:06 (setting [21]) it was at most 0.1 nM; with HLA-A*02:03 (setting [21]) it was at most 0.1 nM.
Take KQLELFWVI: the Kd with HLA-C*07:02 is at least 20000 nM; with HLA-B*15:42, 2470 nM; in the test with HLA-B*27:20 it was 1.3 nM; with HLA-B*27:05 [13] it was 66.1 nM; in the test with HLA-A*02:01 [5] (setting [22]), at most 1 nM; with HLA-B*39:01, 6 nM. The Kd was 4.2 nM with HLA-B*40:13; 497 nM with HLA-B*15:01 [14]; 833 nM in the test with HLA-B*45:06; 0.2 nM in the test with HLA-A*24:02 (setting [22]); at least 5000 nM with HLA-B*83:01; 1.1 nM in the test with HLA-A*32:07.
